T1: GDF15-HIS(百普赛斯，CAT#:GD5-H5149) (human, UniProt Q99988 197-308)
T1 sequence (looked up): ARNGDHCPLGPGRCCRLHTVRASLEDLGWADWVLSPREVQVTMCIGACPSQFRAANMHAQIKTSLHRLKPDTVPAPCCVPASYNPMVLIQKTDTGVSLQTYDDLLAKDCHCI

T2: GDF3(R&D，5754-G3-010) (UniProt Q9NR23 251-364)
T2 sequence (looked up): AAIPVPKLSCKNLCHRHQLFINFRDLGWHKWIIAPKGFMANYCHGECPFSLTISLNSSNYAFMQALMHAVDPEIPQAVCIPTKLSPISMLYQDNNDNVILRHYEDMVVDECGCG

T3: GDF1(R&D，6937-GD-010) (UniProt P27539 254-372)
T3 sequence (looked up): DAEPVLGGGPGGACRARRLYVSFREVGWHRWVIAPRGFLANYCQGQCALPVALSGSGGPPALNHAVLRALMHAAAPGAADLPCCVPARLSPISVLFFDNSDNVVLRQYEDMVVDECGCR


Legend:
[1] = target: T1, GDF15-HIS(百普赛斯，CAT#:GD5-H5149); assay: cell-based or functional assay
GDF3(R&D，5754-G3-010) = target: T2, GDF3(R&D，5754-G3-010); assay: ELISA, GDF3 coated at 1 μg/ml, HRP-anti-human IgG
GDF1(R&D，6937-GD-010) = target: T3, GDF1(R&D，6937-GD-010); assay: ELISA, GDF1 coated at 1 μg/ml, HRP-anti-human IgG

Bottom (fold luciferase activity), HEK293 SRE-LUC2-cRET-GFRAL reporter cells [1] | IC50(μg/ml), luciferase in HEK293 SRE-LUC2-cRET-GFRAL reporter cells stimulated with 5 ng/ml GDF15-His [1] | binding result (GDF3(R&D，5754-G3-010)) | binding result (GDF1(R&D，6937-GD-010)) | Binder
1.1 | 0.0225 µg/mL | no binding (tested: 4μg/ml) | no binding (tested: 4μg/ml) | 53E5(hz) (antibody, human IgG1, kappa, V domains shown, also called 人源化抗体53E5(hz); 53E5人源化) VH: QVQLQESGPGLVKPSETLSLTCTFSGFSLSTSGMGVGWIRQPPGKGLEWLAHILWDDVKRYNPALKSRLTISKDSSKSQISLKLSSVTAADTAVYYCVQMAWDWFAYWGQGTTVTVSS VL: DIQMTQSPSSLSASVGDRVTITCKASQNVDTNVAWYQQKPGQSPKALIYSASYRSSGVPSRFSGSGSGTDFTLTISSLQPEDFATYYCQQYHSYPTFGQGTRLEIKR
1.03 | 0.0447 µg/mL |  |  | AV380-hIgG1 (antibody) heavy: not shown light: DIQMTQSPASLSASVGETVTITCRTSENLHNYLAWYQQKQGKSPQLLVYDAKTLADGVPSRFSGSGSGTQYSLKINSLQPEDFGSYYCQHFWSSPYTFGGGTKLEIKRTVAAPSVFIFPPSDEQLKSGTASVVCLLNNFYPREAKVQWKVDNALQSGNSQESVTEQDSKDSTYSLSSTLTLSKADYEKHKVYACEVTHQGLSSPVTKSFNRGEC

From patent CN116535503A (KANGYUAN BOCHUANG BIOLOGICAL TECH BEIJING CO LTD, dated 2023)
